1 molecule from patent publication US6093692A, “Method and compositions for lipidization of hydrophilic molecules” (The University of Southern California, priority 1997, dated 2000) can be followed below.

One series relates to C3H 10T1/2 cells. Kind of series: Plating efficiency. In kind it is cell-based. As for the experimental part: The plating efficiency (PE) of the cells was also studied in conjunction with each of the transformation assays. To determine the PE of the cells in the different treatment groups, cells (200 cells/dish) were seeded into three 60-mm petri dishes per experiment group and treated in the identical manner as the transformation assay cells. The cells in these assays were terminated at 10 days, fixed with 100% methanol, and stained with giemsa; the colonies of 50 cells or more visible under a microscope were then counted. The plating efficiency is defined as the (number of colonies/number of cells seeded)×100%.

A further series concerns Caco-2 cells. The series is classed as cell-based, Human. As for the experimental part: Human colon carcinoma cells (Caco-2) were detached from 25 cm^2 stock culture flasks using a 10 min incubation at 37° C. with 0.5 ml of a trypsin/EDTA solution (0.5% trypsin, 5.3 mM EDTA). The cells were then suspended in 5 ml of Dulbecco's minimum essential medium, supplemented with 15% fetal bovine serum (FBS), L-glutamine (1%), and essential amino acids (1%), and counted using a coulter counter.
Radioiodination of BBI and BBIssPal was carried out using the chloramine-T method [McConahey, P. C. and Dixon, F. J., Meth. Enzymol., 70:221-247 (1980)]. Confluent, 14-day old cell monolayers were washed once with, and then incubated in, serum-free Dulbecco medium at 37° C. for 30 min. Subsequently, the incubation medium was replaced with serum free medium containing ^125 I-BBI (10 μg/ml), either as native-BBI or as BBIssPal or BBIssOleic, and the monolayers were incubated for a further 60 min at 37° C. The monolayers were then washed three times with ice-cold PBS, and then exposed to trypsin (0.5%, EDTA 5.3 mM) for 10 min at 37° C. The detached cells were transferred to tubes, isolated by centrifugation, washed three times using ice-cold PBS, assayed for accumulated radioactivity using a gamma counter, and finally assayed for cell protein using the published method [Lowry, O. H., et al., J. Biol. Chem., 193:265-275 (1951)].
In some experiments the uptake of reduced ^125 I-BBIssPal into cells was determined. ^125 I-BBIssPal was reduced with DTT (50 mM) at 60° C. for 5 min followed by a further 25 min at 37° C. In control experiments, ^125 I-BBIssPal was exposed in medium to the same temperatures without being exposed to DTT.
The uptake of ^125 I-BBIssPal in the presence of BSA (fatty acid free) was determined as follows. ^125 I-BBIssPal was incubated with medium containing 0.1% BSA for 30 min at 37° C. before being added to the cell monolayers. In some uptake experiments, BSA was first mixed with a 3-fold molar excess of palmitic acid, and then incubated with the conjugates prior to the experiments. In the experiments where the uptake of ^125 I-BBIssPal was determined in medium containing FBS, the conjugates was simply added to the medium containing the required amount of FBS.
The cell monolayers were incubated with ^125 I-labeled conjugates at 10 μg/ml for 60 min at 37° C. The results presented are the average of three monolayers ±SEM. The uptake experiments were carried out in Dulbecco medium, in the presence and absence of added FBS.
The cell uptake of ^125 I-BBI, either as the native protein or as BBIssPal was determined before and after reduction with DTT (50 mM) for 5 min at 60° C. and 25 min at 37° C.
The uptake experiments were carried out in Dulbecco medium, in the presence and absence of added fatty acid-free BSA (BSA) or fatty acid-loaded BSA (BSA/FA). The results of studies of the uptake of ^125 I-BBI, either as the native-BBI or in conjugated form to palmitic or oleic acid, in Caco-2 cells in the presence of serum-free medium are presented in FIG. 1. The results are shown as the average ng of BBI internalized ±SEM, n=3. The uptake of ^125 I-BBIssPal into the cells was approximately 100-fold higher than that of ^125 I-BBI. […] The difference between the uptake of ^125 I-BBIssPal and ^125 I-BBIssOleic were significant.

Series [1] is classed as in vitro ADME, hairless mice. As for the experimental part:
Freshly-prepared skins from hairless mice were mounted on small rings. To each mounted skin, a 5 μl sample of ^125 I-labeled BBI or BBIssPal at a concentration of 0.5 mg/ml was applied to an area of 0.38 cm^2. Two pieces of skin were used per treatment. The skins were kept at room temperature (23° C.) in a humidified environment. After 30 minutes, the surface of the skins was first rinsed carefully with PBS; subsequently, the skins were unmounted and soaked twice in 100 ml of PBS. The skins were then blotted with filter papers and counted in a gamma counter. The amount of BBI retained on the skins was calculated using the specific radioactivity of the labeled BBI or BBIssPal. The absorption of BBI and BBIssPal into the mouse skins was 0.14 and 1.6 μg/cm^2, respectively.

On the set-up of series [2]: species or system CF-1 mice. The note with it: mouse, in vivo, iv, 3 mg/kg. As for the experimental part:
Female CF-1 mice, […], weighing 20-25 g each, with free access to food and water prior to the experiments, were used for the animal experiments. ^125 I-BBI (3 mg/kg), as native-BBI or as BBIssPal or BBIssOleic conjugate, was administered to the animals via the tail vein. At 0.5, 3, and 24 hr post-injection, 3 animals from each experiment group were sacrificed and their blood (200 μl), the kidneys, the lungs, and the liver were removed, rinsed in ice-cold PBS, and assayed for accumulated radioactivity. The weights of the organs were recorded and used to adjust the concentration of the conjugates in the organs.

B1: BBIssPal: the palmityl disulfide conjugate of BBI (conjugate, UniProt P01055 40-110, looked up)
Bowman-Birk type proteinase …: DDESSKPCCDQCACTKSNPPQCRCSDMRLNSCHSACKSCICALSYPAQCFCVDITDFCYEPCKPSEDDKEN
modifications: palmityl disulfide; 125I
notes: the palmityl disulfide conjugate of BBI
Consider B1, for which the “Plating Efficiency” value with C3H 10T1/2 cells is reported as 23 ± 3.0%. For the same molecule, in the series with Caco-2 cells, the “Internalization, fold over that of BBI” value is listed as 35 fold; the “Reduction of uptake after reduction with DTT” value is on record as “approximately 80%”; the “Reduction of uptake by defatted-BSA” value stood at 82%; the “Uptake, fold higher than native-BBI” value is on record as 10 fold. Besides, in series [1], the “Increase of BBI absorption into the skin” value is recorded as “more than 10 fold”. In series [2], the “Blood levels and removal from circulation” value was “accumulated in the blood at a relatively high level”; the “Kidney accumulation” value is given as “BBIssPal was not”; the “Kidney clearance, fold lower than native-BBI” value is given as “about 4 fold”; the “Liver accumulation, fold higher than BBI” value is reported as “approximately 5 fold”. In series [2], the “Lung accumulation/levels, fold higher than BBI” value is listed as “approximately 2 fold” and the “Retention in the liver” value is on record as “remained high in the liver even at 24 hr post-injection”.
